Source: publication PMC3038869

Target: Epidermal Growth Factor Receptor (EGFR), Drosophila, endogenous (Drosophila (endogenous in ovaries)) (UniProt P04412)
Test: co-IP; ovarian lysates of wild-type females or females expressing D-CblL or RING-SH2^Drk in follicle cells, immunoprecipitated with mouse monoclonal anti-EGFR, 4°C; blotted with rabbit anti-EGFR and anti-Drk

Sequence of UniProt P04412 (P04412 31-1426): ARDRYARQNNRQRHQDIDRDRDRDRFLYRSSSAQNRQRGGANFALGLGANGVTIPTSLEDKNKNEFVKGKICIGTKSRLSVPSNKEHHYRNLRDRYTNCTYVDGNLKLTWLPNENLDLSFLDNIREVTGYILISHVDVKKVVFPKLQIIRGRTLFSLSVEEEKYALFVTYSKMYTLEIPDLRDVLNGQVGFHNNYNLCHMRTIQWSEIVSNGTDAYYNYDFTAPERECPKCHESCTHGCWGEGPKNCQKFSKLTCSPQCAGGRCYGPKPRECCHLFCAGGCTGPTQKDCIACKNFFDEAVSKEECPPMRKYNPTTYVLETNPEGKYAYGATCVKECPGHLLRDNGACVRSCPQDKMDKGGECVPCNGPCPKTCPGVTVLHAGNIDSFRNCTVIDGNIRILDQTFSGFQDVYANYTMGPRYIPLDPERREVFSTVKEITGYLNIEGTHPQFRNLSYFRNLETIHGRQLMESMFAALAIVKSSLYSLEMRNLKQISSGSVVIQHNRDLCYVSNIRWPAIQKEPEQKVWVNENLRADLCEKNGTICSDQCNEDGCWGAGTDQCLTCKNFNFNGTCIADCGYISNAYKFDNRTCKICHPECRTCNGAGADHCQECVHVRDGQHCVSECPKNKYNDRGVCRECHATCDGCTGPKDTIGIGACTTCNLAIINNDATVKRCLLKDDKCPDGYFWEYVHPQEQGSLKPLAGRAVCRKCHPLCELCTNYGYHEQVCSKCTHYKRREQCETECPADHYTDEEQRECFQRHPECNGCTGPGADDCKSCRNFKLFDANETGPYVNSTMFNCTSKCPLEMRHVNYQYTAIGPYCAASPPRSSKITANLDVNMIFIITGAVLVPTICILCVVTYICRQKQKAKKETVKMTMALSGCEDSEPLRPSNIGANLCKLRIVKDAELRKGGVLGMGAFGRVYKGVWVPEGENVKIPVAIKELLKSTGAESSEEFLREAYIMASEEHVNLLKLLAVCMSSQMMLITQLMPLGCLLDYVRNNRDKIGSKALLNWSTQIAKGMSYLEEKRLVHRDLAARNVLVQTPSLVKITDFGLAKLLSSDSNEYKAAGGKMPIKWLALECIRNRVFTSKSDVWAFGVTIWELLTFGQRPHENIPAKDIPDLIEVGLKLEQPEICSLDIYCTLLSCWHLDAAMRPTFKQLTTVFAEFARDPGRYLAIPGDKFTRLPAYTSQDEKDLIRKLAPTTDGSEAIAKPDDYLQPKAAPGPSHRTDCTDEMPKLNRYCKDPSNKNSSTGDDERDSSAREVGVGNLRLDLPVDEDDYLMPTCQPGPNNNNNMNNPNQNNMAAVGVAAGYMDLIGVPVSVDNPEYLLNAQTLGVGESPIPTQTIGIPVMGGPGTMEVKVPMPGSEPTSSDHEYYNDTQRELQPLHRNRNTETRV

percent reduction of Drk in the EGFR complex: 40%
Substance: RING-SH2^Drk, fusion of the RING finger domain of D-CblL and the SH2 domain of Drk (from UniProt Q08012 53-160)
